In the supplement of paper PMC12455559:

experiment: purified protein yield per well (BCA); higher = higher soluble expression
Experimental: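 Candidate PET hydrolases were expressed in E. coli C41(DE3) in 2 mL autoinduction cultures in 24-deep-well plates, Ni-bead purified and released by SUMO protease cleavage on an OT-2 robot. Yield per well was measured by BCA; values below 25 ug (0.1 mg/mL) are below the detection threshold. Melting temperature was measured by differential scanning fluorimetry with Sypro Orange, ramping from 25 C at 0.3 C/step.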

Purified protein yield per well, < 25 µg:
APAESAQRAASPYERGPAPTEQSVSAKLGPFAFTQVPAPANASAGFNQGTVYYPNDTGQGTFGAIAITPGFLSPESSIGWLGPRLASNGFVVITLTTNSPVDFPGGRAAQMRAALDWVTKQAPDAIRSRIDPTRLGVMGWSMGGGGTLEVANTHPNIQAAVPLAPWHLTNNWSTVKVPTMIIGAQNDLIAGVGAHSEPFYESLKSAPERAYAEIKGGNHFSVTVDTPLVGKLATSWMKRFIDDDTRYDQFLCPKPTDSTLSEYRDSCPNG [DP035], APAHHAAPAHAAAHHHAPFAVRATVVPKTAVKAFGGGVIYTPQDTGKPVLGAVVITPGFTNTNADEKQLGELVASQGFVAFVIDTLDTGDLPDQRATEILAAADYLTGQSAVRSEVSAKDVGLIGYSFGGGGTMQAAQARPSIKAAIGLMPFDFPPASDPDAQYPAYPKLTTPTLVITGQKDDVADPADFGKPAYDSIPAGTPKQYLELKGLDHYAGEHAPVAAIRNAVTAFLKRYLDGNSAYAKFICPAPKVGGPITASYSSCPKG [ESM112], APANPYERGPDPTEASVTAEKGPFTIERIDVPTGSGTGFNRGTIYAPTDTSQGTFGAIAVSPGFVSPQAWIDWYGPRLASQGFVVMTLETLNLMDVPDSRANQLLAALDYLTGKSTVKNRIDPARLAVMGHSMGGGATLRAAAERPALQAAIPLAPWHTDRDWQGVTVPTMIMGADNDFIAGVGAHAEPFYRNLTSAPEKAYLELRNAGHMSFNTPNTTIAKYGISWMKRFVDDDTRYDRFLCPAPRPGAAINEYRDTCPNG [TEP186], APAPATAAAADNPYERGPDPTEDSIEAARGPYDVAETSVSSWVVSGFGGGTVYYPRETDDGTFGAVAVAPGYTASQSSMAWLGPRLASQGFVVFTIDTLTRLDQPASRGRQLLAALDYLTERSAVRNRIDASRLGVMGHSMGGGGTLEAAADRPSLQAAVPLAPWNLDKTWGELRVPTMIIGADGDSIAPVSSHSEPFYESLPGGLDRAYLELNNADHFTPNLPDTTLAKYSLSWLKRFIDNDTRYEQFLCPLPRPGWYIEEYRGTCPHLS [TEP124], APGPSAPCADCSRGPNPTVASLQSRSGPFTVSTFSVSGYLRGFGNSTVHYPTNATGKMGAIAVIPGYLSYEDSIRWWGPRLASHGFVVITMNTNTIYDQPDSRATQLSRALDYVIEQSNSRSSPISGKVDSTRLGAIGWSMGGGGSLKLSTERSLNAIIPQAPYYAGLNRFNTINTPTMILACSADVVAPVASHASPFYNRIPDATPKAFLEIYGGSHFCANSGYPNEDLLGMYGISWMKRFIDFDSRYSQFLCGPNHAADLRVSEYRENCNY [ESM165], APPVAGPYQRGPAPTEEVLVAARGPFAVTQTRMAAGQGTGAGTVHHPTDASQGTFGAVAVMPGFMGTEKSIRLYGPLLASHGFVVLTLSSVRRADFPDQRADQLLAALDRLVAGPAKGLIDAERLAVVGHSMGGGATLRAAARRPGLKAAVPLAPWHVRRDWRSVRVPTLIFGSENDRVAPVDKHAEPFYASLTRAPEKAYVELRDGGHLSFNTANPVIAKYTVSWLKRYVDDDVRYDPFLCPGPAFPSPTIREYRGTCPS [DP060], APQAPENPYQRGPAPTEQSIVADRGSFEVERISVGSWSGPGFNKGTIYAPKDRSQGTFGAIAVSPGFVSPEYLISWYGERLASRGFVVMTIETTTLYDQPAQRGDQLLAALDYVVSDDSPVRDRVDPNRLAVMGHSMGGGGTLHAVKERKSLKAAVPLMPWNLFTDWGDVQTPTMIIGAQNDLIASVGLHSEPFYNSLRSAREKAYLEMDGAGHLVANSPNDTIAKYTIAWMKRYVDNDTRYEQFLCPAPSRDRNISEYRDTCPGS [DP015], APVAVAPAAVPVHGVDPTDANLRQPVGDLAFSQVTIADSQTPGFGAATIYYPDDTTHGTYGGVAVVPGYTSPQSAVAWLGPRLASRGFVVITIATNSIYDQPTTRGRELLSALDYLTTSSPAAVRQRLDPQRLAVMGHSMGGGGALYAVSQRTTIKAAVPLAPYNQDKTWQTVKTPTMLMAGSADNVAGIGTFSRPFYRSMTGARERALVNVQGADHGTFVRENATIGKYATAWLKRFVDEDTRYDQFLCPAPTGDGLTEYTASCPNA [DP012], AQPQKGPDPTEQLVKSQTGPFDIARTSVPAGSGRGFNKGTLYYPTDTSQGAYAAVAVIPGFFEGEYTQSWFGPALASHGFVVFTLETHGLFDFPDQRGDQLIAALDWLVASSPVKDRVDPARLAVMGHSMGGGGTLAAANKRPSIKAAVALTPWHMTKRFPGIEAATMIIGAQSDSIASVSGHAEPMYAALTSPDEHAYVELTGGHFVTNSYTATNMRFILPWLKRFLDSDTRYSPFVCPGPAQDSTFVEYRNTCPV [TEP047], AQQTILQESFNSSLGSFTSAGSVSVGSSGALMRGSAYSTDGRITSAAVSTQGLTNIVLSFTSATSGLDLGEAAIVSYSTNGSSYTTVSSERYATGSFTFNLGTAAANQSQLFLRFAIDASSTYETYAVDNIILTGDGEGGGTTCTTCIGPDPTVAALEAARGPFNTSSFGLSSWSVSGFGGGDIFYPTNAPAGPLAAIAICPGFLGTSETVDWWGPRLASHGFVVIVMDPNSVFDQPAQRATQLMACLDELEDQNNDSGSPIYGMVDSNRVGLMGHSMGGGGTLIATEDNPSVIKAAIPMAPWNMLSSNFSDITTPTLVIACEADLIAPVAQHARPFYDSIPSTVPKAFLEINNGDHLAVMNGDVFEDMLGKYGVAWMKVFLDNDQRYMQFLCGPDHESDWDISDYRSSCPY [DP024], AQSPYERGPAPTETSVRASTGPFQYAQVSVPGAGFGSGTIYYPTDTGQGTFGGVAVSPGFLSPEILIAWLGPKLASNGFVVITISTNNPGDQPDSRGEQLLAALNYLATQSPAAVRQRLDPGRLSVIGHSMGGGGALRAADSRPDLQAAIPLGGWHTNKNWSNIRVPTMVIGAQNDFIAPNDQHSQRFYTSITQAPEKAYLRPVGTGHVNVGTGTPVVGKFVLSWLKRFVDDDTRYDQFLCPTPSGSDLVEYHSTCPHT [DP014], ASLSIGGEYQVLTYTDFPDVPEFGDATIYYPLETPGTVGGVAIAPGFTERQSHIEWWGPRLASHGFAVLVLDTNERRAMPDARGDALLAAVEVLRRESAREGSPLFGRVATDKMAIMGHSMGGGGALLAANEHSDQIQAAIPFTPWEPQAVFQDITVPTLVLAGSVDRLARVDNHAWRHYQSIPESTPKAYLEVGGGNHYIADTERGTDLETI [TEP137], ASPYERGPDPSRTSIEARRGPFAVTSTSVSDLSTPGFGSATITYPTSTAEGTYGAVAVSPGFTASESTIAWLGPRLASQGFVVITFNTQSRLDQPAARGDQLLAALDYLTQRSSTTIRSRIDPTRLAVIGHSMGGGGTLEAAKDRPSLQATVGLTPWNLDKSWPEIRTPSLVIGAESDTVAPVGSHAVPFYQSIPSSTAKAYLELNNASHFAPNTENTTIASSTISWLKLYVDDDDRYRQFLCPGPQSSVTGSVSDYRNTCTS [DP050], ATASFQRGPAPSAASIRATDGPFAITRTNVARAAVSGFGGGDIYAPDDTSQGTFGAVAIAPGFTATRSSMAWLAPRIASQGFVVFNIDTLTTSDQPATRGRELLAALDFLTAQSTARAKIDKNRLAVMGHSMGGGGTLEAAKSRPALKAAVPLTPWDLTKNFAGVTVPTMIIGAQSDTIAPVRQHSERFFASLPSGADTGYLELAGASHFAPNIPNTTIASTSVAWLKRFVDEDTRFEQFLCPGPATGATVSEYETNCPHQG [DP071], ATGPSAPCTNCTRGPAPTTAALKSNTGPFTTAKFSVSGLLKGFGNSTVYYPTNTTGKMGAIAVIPGFLSYEDSIEWWGPRLASHGFVVMTMNTSTIYDQPDSRATQLSKALDYVISQSNTSSSPIYGKVDSTRLGAIGWSMGGGGSLKLSTQRSLNAIIPQAPYYAGLNSFNTIKTPALILACSADAVAPVGVHASPFYNKIPSTTPKAFLEIYGGSHFCANSGYPNQDLLGLYGISWMKRFIDFDTRYSQFLCGPNHTASGTISEYRQNCPY [ESM019], ATTAGTFGGVAISPGYTASESTIAWLGPRIASQGFVVITFNTNSRYDQPASRGDQLLAALDYLTGSSAVRARVDASRLAVMGHSMGGGGALEAAKDRPSLQAAIPLTGWNTDKTWPEVRTPTLVIGAENDSVAPVGSHSIPFYNSLTSAPERAYLELNNASHFAPNSPNTDIASSSIAWLKRYVDDDTRYTQFLCPGPSVSAFGSVSDYRATCPM [TEP154], ATTSFRRGPDPSAASIRAANGPFAIAKTTVARQAGFGGGDIYAPTDTSRGTFGAVAIAPGFTATRSSLAWLAPRIASQGFVVFNIDTLTTSDQPAQRGRELLAALDFLTGSSTARAKIDRTRLAVMGHSMGGGGTLEAAKARPSLKAAVPLTPWDLTKNFATVKVPTMIIGAQSDTIAPPSRFSDQFFASLPAATNKGYLELAGASHFAPNIPNPTIASTSIAWLKRFVDGDTRFEQFLCPGPSSNGISEYQTNCPHKA [ESM129], ATTTLLAESFDNGFGVFSAQGYASTDNGVAVLRGGSADGTITSGAVPAAGQTNLTLSWTQTTSRLDAGESLVVEWSTGSSWSSLSSERSSGVLSVGLPTAAASNALQLRFRVDASSYYERVDVDDVVLTAGDGGGSGNPYAKGPDPTWNSIEATTGPFEVDDYDISSFAADGFGGADVYYPSDAGSATFGGIAISPGYTASRSTVTWLGPRIASQGFVVIVIDTNSRYDQPASRGDQLLAALDQLVNDSDVSHLVDPNRLAVMGHSMGGGGSLEAADDRPSLRAIVPLQGWNSDKTWSQVQVPALLIGGENDSVAPDSSHSQRFYDSLGGEKVYLQLNNASHFASNSPNTTIASYSIAWLKRWVDEDTRYSQFVCGPDAGQGSAISDYRTTCPV [DP065], ATVACSDCSNGFQRGTLPRVDQLESSRGPYSVKTSNVSVFARGFGGGTIHYSTDSGGQQGIIAVIPGYVSYESSIKWWGPRLASWGFTVITINTNTIYDQPNSRANQLSAAIDYVIDKGNDRSSPIYGLVDPERVGVIGWSMGGGGTLKLATDRDIDAIIPQAPWYSGLNSFSRITTPTMVIACQADAVAPVALHASIFYNQIPRSTPKAFFEIAAGSHFCGNSGYPNEDILGRNGVAWMKRFIDNDTRYNQFLCGQNFDRSLRVSDYKDTCNTY [DP094], ATVTPIRMETRIRTSSFTRFTSTPTACAFDSPIAKAFSSVRSRIDASRLAVAGHSMGGGGTLEAAKDRPGLRAAVPLAPWNTTKNWSGNRVPTLIIGGQSDTIAAVSSHAVPFYTSLPTTPDKAYLELAGASHFFPQSANADVAMMFVSWLKRFVDGDTRYEQFLCPGPSVSGSVSRYSSTCPLASGPTPTSTTTATTGTSTTRTTTTSSGGSGGGACSASYATSNAWQGGFVGTVTVRADLALSGWQVTLALPAGTTITGSWNGVRSGSTGTVQVRNETYNGILASGQTTSFGFQGSGSPSGLTVTSCTAN [ESM108]
